{
  "source": "paper PMC9603081",
  "about": "“Transcription Factors as Important Regulators of Changes in Behavior through Domestication of Gray Rats: Quantitative Data from RNA Sequencing”",
  "molecules": {"B1": {"name": "HBB rs33980857 T-29A (dsDNA)", "DNA 1": "CAGGGCTGGGCAAAAAAGTCAGGGCA", "DNA 2": "TGCCCTGACTTTTTTGCCCAGCCCTG"}, "B2": {"name": "HBB rs33980857 T-29G (dsDNA)", "DNA 1": "CAGGGCTGGGCAGAAAAGTCAGGGCA", "DNA 2": "TGCCCTGACTTTTCTGCCCAGCCCTG"}, "B3": {"name": "HBB WT (dsDNA)", "DNA 1": "CAGGGCTGGGCATAAAAGTCAGGGCA", "DNA 2": "TGCCCTGACTTTTATGCCCAGCCCTG"}, "B4": {"name": "HBB rs33931746 A-27T (dsDNA)", "DNA 1": "CAGGGCTGGGCATATAAGTCAGGGCA", "DNA 2": "TGCCCTGACTTATATGCCCAGCCCTG"}, "B5": {"name": "HBB rs34500389 C-32T (dsDNA)", "DNA 1": "CAGGGCTGGGTATAAAAGTCAGGGCA", "DNA 2": "TGCCCTGACTTTTATACCCAGCCCTG"}, "B6": {"name": "HBD WT (dsDNA)", "DNA 1": "ACAGGACCAGCATAAAAGGCAGGGCA", "DNA 2": "TGCCCTGCCTTTTATGCTGGTCCTGT"}, "B7": {"name": "HBB rs34598529 A-28G (row 10) (dsDNA)", "DNA 1": "CAGGGCTGGGCATGAAAGTCAGGGCA", "DNA 2": "TGCCCTGACTTTCATGCCCAGCCCTG"}, "B8": {"name": "HBD rs35518301 A-31G (dsDNA)", "DNA 1": "ACAGGACCAGCGTAAAAGGCAGGGCA", "DNA 2": "TGCCCTGCCTTTTACGCTGGTCCTGT"}, "B9": {"name": "HBB rs34598529 A-28G (row 2) (dsDNA)", "DNA 1": "CAGGGCTGGGCATAGAAGTCAGGGCA", "DNA 2": "TGCCCTGACTTCTATGCCCAGCCCTG"}, "B10": {"name": "HBB rs281864525 A-25C (dsDNA)", "DNA 1": "CAGGGCTGGGCATAAACGTCAGGGCA", "DNA 2": "TGCCCTGACGTTTATGCCCAGCCCTG"}, "B11": {"name": "HBD rs34166473 T-30C (dsDNA)", "DNA 1": "ACAGGACCAGCACAAAAGGCAGGGCA", "DNA 2": "TGCCCTGCCTTTTGTGCTGGTCCTGT"}, "B12": {"name": "ASCL3 WT (dsDNA)", "DNA 1": "TCGAAAAATAAAATAAAATAAAACAT", "DNA 2": "ATGTTTTATTTTATTTTATTTTTCGA"}, "B13": {"name": "HBB rs63750953 del -25AA (dsDNA)", "DNA 1": "CCAGGGCTGGGCATAAGTCAGGGCAG", "DNA 2": "CTGCCCTGACTTATGCCCAGCCCTGG"}, "B14": {"name": "HBB rs33980857 T-29C (dsDNA)", "DNA 1": "CAGGGCTGGGCACAAAAGTCAGGGCA", "DNA 2": "TGCCCTGACTTTTGTGCCCAGCCCTG"}, "B15": {"name": "HBB rs34598529 A-28C (dsDNA)", "DNA 1": "CAGGGCTGGGCATACAAGTCAGGGCA", "DNA 2": "TGCCCTGACTTGTATGCCCAGCCCTG"}},
  "key": {"[1]": {"target": "TBP (TATA-binding protein) (Homo sapiens) (UniProt P20226)", "sequence (P20226 whole entry)": "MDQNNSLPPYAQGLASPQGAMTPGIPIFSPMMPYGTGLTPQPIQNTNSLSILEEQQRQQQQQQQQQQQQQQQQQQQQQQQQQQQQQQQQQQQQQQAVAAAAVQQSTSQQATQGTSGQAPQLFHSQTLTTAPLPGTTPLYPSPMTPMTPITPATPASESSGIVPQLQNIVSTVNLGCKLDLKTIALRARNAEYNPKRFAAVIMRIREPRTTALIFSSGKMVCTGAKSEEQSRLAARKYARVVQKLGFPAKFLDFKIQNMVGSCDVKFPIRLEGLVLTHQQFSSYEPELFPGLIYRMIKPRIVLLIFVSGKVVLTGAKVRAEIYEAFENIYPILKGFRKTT", "assay": "EMSA", "conditions": "EMSA association kinetics, 0.3 nM TBP, four ODN concentrations; buffer, salt, pH and temperature not in the material"}, "[2]": {"target": "T1, TBP (TATA-binding protein) (Homo sapiens, UniProt P20226 1-339)", "T1 sequence (P20226 whole entry)": "as above", "assay": "EMSA; EMSA association kinetics, 0.3 nM TBP, four ODN concentrations; buffer, salt, pH and temperature not in the material", "conditions": "protein: recombinant; label: 32P both strands; blunt"}, "[3]": {"target": "T1, TBP (TATA-binding protein)", "assay": "EMSA; association kinetics, 0.3 nM TBP; Table S2 in vitro -ln(KD) 15.05 disagrees; EMSA association kinetics, 0.3 nM TBP, four ODN concentrations; buffer, salt, pH and temperature not in the material", "conditions": "protein: recombinant; label: 32P both strands; blunt"}},
  "data": [
    {"molecule": "TCGAAAAATAAAACAAAATAAAACAT (double strand) [ASCL3 rs1049743008 T-45c]", "values": [
      {"measurement": "Kd", "setting": "[1]", "result": 17, "unit": "nM"}
    ]},
    {"molecule": "B1", "values": [
      {"measurement": "Kd", "setting": "[2]", "result": 110, "unit": "nM"}
    ]},
    {"molecule": "B2", "values": [
      {"measurement": "Kd", "setting": "[2]", "result": 110, "unit": "nM"}
    ]},
    {"molecule": "B3", "values": [
      {"measurement": "Kd", "setting": "[2]", "result": 50.1, "unit": "nM"}
    ]},
    {"molecule": "B4", "values": [
      {"measurement": "Kd", "setting": "[2]", "result": 59.9, "unit": "nM"}
    ]},
    {"molecule": "B5", "values": [
      {"measurement": "Kd", "setting": "[2]", "result": 31.9, "unit": "nM"}
    ]},
    {"molecule": "B6", "values": [
      {"measurement": "Kd", "setting": "[2]", "result": 70.3, "unit": "nM"}
    ]},
    {"molecule": "B7", "values": [
      {"measurement": "Kd", "setting": "[2]", "result": 499, "unit": "nM"}
    ]},
    {"molecule": "B8", "values": [
      {"measurement": "Kd", "setting": "[2]", "result": 99.8, "unit": "nM"}
    ]},
    {"molecule": "B9", "values": [
      {"measurement": "Kd", "setting": "[2]", "result": 557, "unit": "nM"}
    ]},
    {"molecule": "B10", "values": [
      {"measurement": "Kd", "setting": "[2]", "result": 150, "unit": "nM"}
    ]},
    {"molecule": "B11", "values": [
      {"measurement": "Kd", "setting": "[2]", "result": 170, "unit": "nM"}
    ]},
    {"molecule": "B12", "values": [
      {"measurement": "Kd", "setting": "[3]", "result": 12, "unit": "nM"}
    ]},
    {"molecule": "B13", "values": [
      {"measurement": "Kd", "setting": "[2]", "result": 150, "unit": "nM"}
    ]},
    {"molecule": "B14", "values": [
      {"measurement": "Kd", "setting": "[2]", "result": 140, "unit": "nM"}
    ]},
    {"molecule": "B15", "values": [
      {"measurement": "Kd", "setting": "[2]", "result": 499, "unit": "nM"}
    ]}
  ]
}
